Data taken from the supplement of paper PMC10065799, “High-throughput profiling of sequence recognition by tyrosine kinases and SH2 domains using bacterial peptide display” (eLife, 2023).

What was measured:
[1] = molecular target: FGFR3 (UniProt P22607); assay: phosphorylation enrichment, bacterial display (enrichment ratio); higher = better substrate or ligand; peptides without Tyr show the background
[2] = molecular target: MERTK (UniProt Q12866); assay: as above
[3] = molecular target: EPHB2 (UniProt P29323); assay: as above
[4] = molecular target: EPHB1 (UniProt P54762); assay: as above
[5] = molecular target: Fyn (UniProt P06241); assay: as above
[6] = molecular target: Jak2 (UniProt O60674); assay: as above
[7] = molecular target: Fes (UniProt P07332); assay: as above
[8] = tested on: Fer (mouse); assay: as above
[9] = tested on: c-Src; assay: as above
[10] = tested on: AncSZ; assay: as above
[11] = molecular target: FGFR1 (UniProt P11362); assay: as above
[12] = molecular target: Hck (UniProt P08631); assay: as above
[13] = tested on: c-Abl (mouse); assay: as above
[14] = molecular target: SHP2-C SH2; assay: SH2 binding enrichment of the phosphorylated peptide, bacterial display (enrichment ratio); higher = better substrate or ligand; peptides without Tyr show the background
[15] = molecular target: c-Src SH2; assay: as above
[16] = molecular target: Grb2 SH2 (UniProt P62993); assay: as above
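Throughout, for SH2 binding enrichment of the phosphorylated peptide, bacterial display: peptide library displayed on the E. coli surface as eCPX fusions, selected cells deep-sequenced, score is each peptide's frequency after selection divided by its frequency in the input.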
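Throughout, for phosphorylation enrichment, bacterial display: 11-residue human phosphosite peptides and single-mutation variants displayed on the E. coli surface, counted by deep sequencing, each peptide's frequency after selection divided by its frequency in the unselected input library; frequency after pTyr selection over input frequency; kinase dosed for 20-30% of maximal phosphorylation in three min.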

Sequence of EPHB2 (P29323 whole entry, looked up): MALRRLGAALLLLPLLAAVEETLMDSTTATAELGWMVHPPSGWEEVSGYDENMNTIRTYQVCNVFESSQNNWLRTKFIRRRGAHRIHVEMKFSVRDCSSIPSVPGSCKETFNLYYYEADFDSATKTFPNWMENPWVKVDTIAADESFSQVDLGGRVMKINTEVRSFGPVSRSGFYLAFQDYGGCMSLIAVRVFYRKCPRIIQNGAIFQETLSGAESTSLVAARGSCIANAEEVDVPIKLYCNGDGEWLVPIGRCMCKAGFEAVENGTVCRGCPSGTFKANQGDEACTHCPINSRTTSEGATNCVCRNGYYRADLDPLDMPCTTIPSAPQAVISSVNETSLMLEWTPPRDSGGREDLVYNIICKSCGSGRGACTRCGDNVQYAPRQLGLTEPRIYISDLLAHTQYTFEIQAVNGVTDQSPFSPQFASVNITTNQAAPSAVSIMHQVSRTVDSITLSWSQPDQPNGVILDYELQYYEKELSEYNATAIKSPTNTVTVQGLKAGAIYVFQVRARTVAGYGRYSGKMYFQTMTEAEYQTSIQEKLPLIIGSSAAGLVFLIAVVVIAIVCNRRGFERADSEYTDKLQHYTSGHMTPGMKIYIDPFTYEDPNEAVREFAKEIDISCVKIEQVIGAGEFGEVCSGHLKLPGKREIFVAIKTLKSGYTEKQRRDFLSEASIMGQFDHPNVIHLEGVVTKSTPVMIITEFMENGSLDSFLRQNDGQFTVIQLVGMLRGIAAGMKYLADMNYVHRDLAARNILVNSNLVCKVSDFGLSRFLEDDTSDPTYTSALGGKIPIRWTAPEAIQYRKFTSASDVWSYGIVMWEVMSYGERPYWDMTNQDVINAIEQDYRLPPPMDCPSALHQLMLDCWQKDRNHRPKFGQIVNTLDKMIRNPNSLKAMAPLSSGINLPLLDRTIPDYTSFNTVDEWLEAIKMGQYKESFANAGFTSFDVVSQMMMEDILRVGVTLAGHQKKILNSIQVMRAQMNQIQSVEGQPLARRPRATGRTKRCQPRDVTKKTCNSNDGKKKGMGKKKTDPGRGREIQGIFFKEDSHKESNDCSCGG
Sequence of Fyn (P06241 whole entry, looked up): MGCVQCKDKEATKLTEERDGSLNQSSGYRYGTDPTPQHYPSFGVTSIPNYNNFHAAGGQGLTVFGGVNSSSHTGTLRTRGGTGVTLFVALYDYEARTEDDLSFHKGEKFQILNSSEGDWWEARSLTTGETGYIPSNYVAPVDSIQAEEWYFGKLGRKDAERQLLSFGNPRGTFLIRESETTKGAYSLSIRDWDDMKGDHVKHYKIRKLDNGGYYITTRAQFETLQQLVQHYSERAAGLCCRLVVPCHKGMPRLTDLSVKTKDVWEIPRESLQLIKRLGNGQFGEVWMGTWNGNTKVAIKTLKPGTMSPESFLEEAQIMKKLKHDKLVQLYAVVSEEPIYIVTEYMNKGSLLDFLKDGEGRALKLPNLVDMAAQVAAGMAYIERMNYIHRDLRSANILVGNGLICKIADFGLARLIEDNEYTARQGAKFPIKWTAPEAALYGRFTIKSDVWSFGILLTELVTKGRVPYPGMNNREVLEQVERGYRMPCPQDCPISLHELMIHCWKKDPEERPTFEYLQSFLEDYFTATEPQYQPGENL
Sequence of FGFR1 (P11362 whole entry, looked up): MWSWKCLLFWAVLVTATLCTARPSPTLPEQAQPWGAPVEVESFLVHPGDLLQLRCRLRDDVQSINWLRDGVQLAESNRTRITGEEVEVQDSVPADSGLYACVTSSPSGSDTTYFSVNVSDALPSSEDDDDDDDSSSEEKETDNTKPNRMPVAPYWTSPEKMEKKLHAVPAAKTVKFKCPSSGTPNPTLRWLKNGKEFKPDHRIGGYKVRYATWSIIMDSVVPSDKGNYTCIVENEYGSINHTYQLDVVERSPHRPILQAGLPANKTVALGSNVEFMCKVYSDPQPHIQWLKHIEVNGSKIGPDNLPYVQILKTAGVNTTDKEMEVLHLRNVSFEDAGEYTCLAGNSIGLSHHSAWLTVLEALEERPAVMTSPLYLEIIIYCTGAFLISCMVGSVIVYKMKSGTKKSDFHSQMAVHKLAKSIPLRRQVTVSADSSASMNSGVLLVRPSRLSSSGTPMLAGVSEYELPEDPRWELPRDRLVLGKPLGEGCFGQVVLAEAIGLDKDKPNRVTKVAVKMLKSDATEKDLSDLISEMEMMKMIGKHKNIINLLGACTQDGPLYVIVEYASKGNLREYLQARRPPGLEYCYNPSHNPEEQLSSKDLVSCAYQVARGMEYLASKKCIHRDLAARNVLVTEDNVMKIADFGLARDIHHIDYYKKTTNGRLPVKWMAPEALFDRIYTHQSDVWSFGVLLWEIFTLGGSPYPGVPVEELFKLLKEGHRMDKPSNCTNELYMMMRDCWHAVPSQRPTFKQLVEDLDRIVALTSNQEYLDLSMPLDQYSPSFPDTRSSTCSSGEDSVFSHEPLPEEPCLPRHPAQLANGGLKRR
Sequence of EPHB1 (P54762 whole entry, looked up): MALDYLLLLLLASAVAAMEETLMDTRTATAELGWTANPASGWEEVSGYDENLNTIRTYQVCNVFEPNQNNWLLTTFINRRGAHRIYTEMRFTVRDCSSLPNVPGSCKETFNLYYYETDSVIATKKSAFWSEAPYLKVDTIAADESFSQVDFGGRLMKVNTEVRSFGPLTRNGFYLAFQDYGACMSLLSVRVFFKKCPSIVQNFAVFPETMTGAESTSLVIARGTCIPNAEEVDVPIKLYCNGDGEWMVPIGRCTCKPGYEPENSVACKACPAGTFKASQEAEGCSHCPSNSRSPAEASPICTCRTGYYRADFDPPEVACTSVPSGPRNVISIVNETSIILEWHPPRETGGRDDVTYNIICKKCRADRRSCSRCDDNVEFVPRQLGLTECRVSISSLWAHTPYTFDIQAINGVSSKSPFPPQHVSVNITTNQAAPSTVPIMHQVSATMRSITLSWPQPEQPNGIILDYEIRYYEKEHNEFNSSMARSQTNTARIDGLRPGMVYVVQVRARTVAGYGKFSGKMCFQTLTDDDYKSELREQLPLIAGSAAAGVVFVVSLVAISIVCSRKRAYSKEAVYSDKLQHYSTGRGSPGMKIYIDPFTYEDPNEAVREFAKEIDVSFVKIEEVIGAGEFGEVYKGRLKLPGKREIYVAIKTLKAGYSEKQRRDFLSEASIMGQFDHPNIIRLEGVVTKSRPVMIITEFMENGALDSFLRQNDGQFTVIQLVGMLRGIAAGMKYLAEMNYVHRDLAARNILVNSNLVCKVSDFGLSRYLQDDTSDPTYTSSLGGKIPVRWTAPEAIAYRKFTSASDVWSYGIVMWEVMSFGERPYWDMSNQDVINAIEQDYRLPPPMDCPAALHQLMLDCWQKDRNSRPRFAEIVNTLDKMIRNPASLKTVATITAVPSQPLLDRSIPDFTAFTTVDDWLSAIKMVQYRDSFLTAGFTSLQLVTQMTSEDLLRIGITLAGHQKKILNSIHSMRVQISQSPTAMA
Sequence of Grb2 SH2 (P62993 whole entry, looked up, the tested form may be a part): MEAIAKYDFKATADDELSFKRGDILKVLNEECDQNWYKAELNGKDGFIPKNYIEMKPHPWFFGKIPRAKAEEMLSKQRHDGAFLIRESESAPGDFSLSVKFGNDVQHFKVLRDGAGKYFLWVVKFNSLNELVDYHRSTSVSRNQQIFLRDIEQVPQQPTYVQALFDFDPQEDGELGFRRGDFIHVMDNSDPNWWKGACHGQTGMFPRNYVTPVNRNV
Sequence of MERTK (Q12866 whole entry, looked up): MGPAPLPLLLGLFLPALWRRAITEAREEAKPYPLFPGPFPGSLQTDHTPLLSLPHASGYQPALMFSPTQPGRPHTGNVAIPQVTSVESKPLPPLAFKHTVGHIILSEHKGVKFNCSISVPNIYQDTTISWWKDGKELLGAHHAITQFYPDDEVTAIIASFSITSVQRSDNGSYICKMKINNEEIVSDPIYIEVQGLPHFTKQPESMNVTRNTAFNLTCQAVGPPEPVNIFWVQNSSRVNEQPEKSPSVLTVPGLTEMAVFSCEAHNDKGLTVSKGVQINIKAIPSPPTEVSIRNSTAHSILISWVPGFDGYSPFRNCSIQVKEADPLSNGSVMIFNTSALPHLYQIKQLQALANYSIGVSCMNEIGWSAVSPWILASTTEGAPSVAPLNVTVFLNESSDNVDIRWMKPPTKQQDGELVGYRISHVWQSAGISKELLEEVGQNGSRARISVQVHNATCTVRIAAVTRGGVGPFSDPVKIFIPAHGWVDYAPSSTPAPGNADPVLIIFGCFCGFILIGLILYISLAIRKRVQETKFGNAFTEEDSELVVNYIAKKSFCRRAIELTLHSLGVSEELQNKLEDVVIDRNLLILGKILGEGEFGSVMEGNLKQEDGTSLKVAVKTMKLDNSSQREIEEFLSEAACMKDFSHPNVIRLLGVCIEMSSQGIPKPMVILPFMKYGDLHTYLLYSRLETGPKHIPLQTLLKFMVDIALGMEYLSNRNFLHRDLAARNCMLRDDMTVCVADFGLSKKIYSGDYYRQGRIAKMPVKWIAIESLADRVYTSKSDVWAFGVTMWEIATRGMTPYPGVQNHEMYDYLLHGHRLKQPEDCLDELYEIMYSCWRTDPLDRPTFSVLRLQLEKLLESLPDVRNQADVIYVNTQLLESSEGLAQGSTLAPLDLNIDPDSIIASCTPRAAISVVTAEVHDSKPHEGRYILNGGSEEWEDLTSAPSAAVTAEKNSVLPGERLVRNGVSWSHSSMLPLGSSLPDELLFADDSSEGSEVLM

Row | Sequence | phosphorylation enrichment [1] | phosphorylation enrichment [2] | phosphorylation enrichment [3] | phosphorylation enrichment [4] | phosphorylation enrichment [5] | phosphorylation enrichment [6] | phosphorylation enrichment [7] | phosphorylation enrichment [8] | phosphorylation enrichment [9] | phosphorylation enrichment [10] | phosphorylation enrichment [11] | phosphorylation enrichment [12] | phosphorylation enrichment [13] | SH2 binding enrichment [14] | SH2 binding enrichment [15] | SH2 binding enrichment [16]
1 | RDMNAYISPSP [MMAA_Y207_R209S] | 0.508 | 0.451 | 0.477 | 0.553 | 0.365 | 0.879 | 1.03 | 0.66 | 0.416 | 0.505 | 0.432 | 0.323 | 0.671 | 0.715 | 0.567 | 1.01
2 | REAAAYLHGRL [AGXT_Y297] | 0.595 | 0.584 | 0.571 | 0.322 | 0.543 | 1 | 1.03 | 0.502 | 0.655 | 0.891 | 0.671 | 0.479 | 1.04 | 1.03 | 0.557 | 0.956
3 | REENGYNTFAS [FGF10_Y161_I156R_YF] | 0.862 | 0.69 | 0.709 | 0.617 | 0.84 | 0.91 | 1 | 0.558 | 0.827 | 0.973 | 0.728 | 0.4 | 0.606 | 0.637 | 1.14 | 0.728
4 | REGAKYVSHGT [ASS1_Y113_A118T] | 0.482 | 0.663 | 0.587 | 0.513 | 0.363 | 0.898 | 0.969 | 0.375 | 0.411 | 0.73 | 0.493 | 0.37 | 0.517 | 0.706 | 0.566 | 0.808
5 | RELGKYGLQAY [ALDH2_Y497_E496K] | 0.47 | 0.457 | 0.402 | 0.403 | 0.464 | 0.543 | 0.72 | 0.475 | 0.356 | 0.683 | 0.426 | 0.455 | 0.581 | 0.564 | 0.455 | 1.15
6 | RESFKYFPSSL [CXXC1_Y218_YF] | 0.547 | 0.421 | 0.421 | 0.424 | 0.435 | 0.612 | 0.567 | 0.295 | 0.852 | 0.748 | 0.543 | 0.4 | 0.454 | 0.565 | 0.367 | 0.955
7 | RESFKYLPSSL [CXXC1_Y218_F219L_YF] | 0.431 | 0.286 | 0.395 | 0.512 | 0.469 | 0.837 | 0.862 | 0.347 | 0.429 | 0.561 | 0.329 | 0.381 | 0.567 | 0.455 | 0.353 | 0.919
8 | RFLERYIFNPE [HLA-DPB1_Y57_R61P_YF] | 0.624 | 0.521 | 0.666 | 0.892 | 0.557 | 1.39 | 1.25 | 0.627 | 0.804 | 1.27 | 0.46 | 0.51 | 1 | 0.835 | 0.794 | 3.06
9 | RFVSRYIFNRE [HLA-DQB1_Y62_T60S_YF] | 0.934 | 0.994 | 0.744 | 1.13 | 1.05 | 2.14 | 1.46 | 0.976 | 0.916 | 1.86 | 0.852 | 0.79 | 0.867 | 1.2 | 0.499 | 0.733
10 | RGEKQYLAAPL [ALOX12_Y295] | 0.341 | 0.377 | 0.461 | 0.402 | 0.436 | 0.523 | 0.416 | 0.365 | 0.505 | 0.777 | 0.754 | 0.545 | 0.504 | 0.431 | 0.409 | 0.709
11 | RGERPYGGGGG [FUS_Y526_R522G] | 0.377 | 0.48 | 0.418 | 0.185 | 0.474 | 0.65 | 0.643 | 0.337 | 0.415 | 0.487 | 0.419 | 0.444 | 0.397 | 0.673 | 0.661 | 1.24
12 | RGVVMYTSKDR [ZG16B_Y136_M133V] | 0.568 | 0.552 | 0.724 | 0.601 | 0.665 | 1.02 | 0.865 | 0.41 | 0.622 | 0.694 | 0.433 | 0.677 | 1.4 | 0.981 | 0.596 | 0.91
13 | RGYRQYAYDGK [HLA-A_Y140_D140Y] | 0.39 | 0.423 | 0.243 | 0.674 | 0.252 | 0.402 | 0.474 | 0.317 | 0.434 | 0.478 | 0.426 | 0.294 | 0.532 | 0.607 | 0.44 | 0.679
14 | RHPEVYHHLGI [NVL_Y290_V295I] | 0.999 | 0.71 | 0.599 | 0.837 | 0.908 | 0.834 | 0.835 | 0.641 | 0.621 | 0.694 | 1.14 | 1.53 | 0.731 | 1.11 | 0.932 | 1.09
15 | RIVEIYSRRLR [GCH1_Y175_Q180R] | 0.549 | 0.773 | 0.654 | 0.728 | 0.922 | 0.619 | 0.623 | 1.15 | 0.81 | 0.691 | 0.292 | 0.736 | 0.692 | 0.353 | 0.404 | 0.761
16 | RKPDIYGRLAS [MCM4_Y459_E460G] | 1.05 | 0.753 | 0.545 | 0.513 | 4.7 | 0.535 | 0.807 | 0.747 | 2.24 | 0.628 | 0.757 | 5.06 | 0.67 | 0.764 | 1.02 | 1.16
17 | RKTAKYLLKGE [CDH5_Y82_N79T] | 0.704 | 0.832 | 0.54 | 0.915 | 0.598 | 0.628 | 0.644 | 0.878 | 0.535 | 0.71 | 1.04 | 0.672 | 1.1 | 0.709 | 0.461 | 0.861
